B1: Golgi phosphoprotein 3 (Homo sapiens), Q9H4A6 (parent)
chain: MTSLTQRSSGLVQRRTEASRNAADKERAAGGGAGSSEDDAQSRRDEQDDDDKGDSKETRLTLMEEVLLLGLKDREGYTSFWNDCISSGLRGCMLIELALRGRLQLEACGMRRKSLLTRKVICKSDAPTGDVLLDEALKHVKETQPPETVQNWIELLSGETWNPLKLHYQLRNVRERLAKNLVEKGVLTTEKQNFLLFDMTTHPLTNNNIKQRLIKKVQEAVLDKWVNDPHRMDRRLLALIYLAHASDVLENAFAPLLDEQYDLATKRVRQLLDLDPEVECLKANTNEVLWAVVAAFTK

Variants of: B1
Conditions: with my18a_human MYO18A

effect of a mutation on the interaction	Variant
increasing interaction strength	T143D;T148D
increasing interaction strength	T143E;T148E

Reference: IntAct's records for PubMed 24485452
